Measured values: patent publication US20190100518A1 (priority 2016, published 2019)

Legend:
[1] = molecular target: T1, lysozyme (Gallus gallus, UniProt P00698); assay: circular dichroism (CD) spectrum, higher-order structure of lysozyme; format: physicochemical; details: 25° C.
T1 construct: purchased Sigma-Aldrich L-4919
Protocol: A keto-ABNO-lysozyme conjugate prepared by the same method as in Example 6 was dissolved in water, and the concentration was adjusted to 20 μM to provide an aqueous solution for a test group. On the other hand, lysozyme alone was dissolved in water, and the concentration was adjusted to 20 μM to provide an aqueous solution for a control group.
Using a circular dichroism (CD) dispersion meter Model 202SF (manufactured by AVIV Biomedical, Inc.), the CD spectrum of the aqueous solution in each of the test group and the control group was measured under the following conditions to perform analysis of the higher-order structure of the lysozyme in each aqueous solution.
On the other hand, control group A was prepared in the same manner as in the method described in Example 6 except that the same amount of water was added instead of the aqueous NaNO2 solution. As control group B, lysozyme alone (20 μM) was used. As control group C, a phenylmaleimide-lysozyme conjugate prepared by the method described in Example 15 was used.
Using a circular dichroism (CD) dispersion meter Model 202SF (manufactured by AVIV Biomedical, Inc.), the CD spectrum was measured for each of the test group and the control groups under the following conditions.

[2] = format: physicochemical
[3] = Example 16: 200 to 250 nm, compared with control groups A and B, FIG. 7

T1 sequence (P00698 19-147): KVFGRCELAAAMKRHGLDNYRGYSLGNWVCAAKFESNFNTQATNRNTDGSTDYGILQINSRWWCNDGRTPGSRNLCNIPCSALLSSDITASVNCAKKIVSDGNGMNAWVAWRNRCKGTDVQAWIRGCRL

Row | Compound | higher-order structure of lysozyme (waveform of the CD spectrum) [1, 3] | solubility in water [2] | higher-order structure of lysozyme (waveform of the CD spectrum) ([1]; Example 14: 20 μM in water, 200 to 250 nm, compared with lysozyme alone, FIG. 5)
1 | phenylmaleimide-lysozyme conjugate: lysozyme bound to phenylmaleimide through a cysteine residue, cysteine modification method comparison [reference compound] | has changed |  | 
2 | [O]N1C2CCCC1CC(=O)C2 [keto-ABNO, keto-azabicyclo[3.3.1]nonane N-oxyl] |  | dissolve in water | 
3 | keto-ABNO-lysozyme conjugate: lysozyme bound to keto-ABNO at a tryptophan residue, prepared in water with NaNO2 and AcOH | maintained |  | not influenced
